From PMC2811193, “Complementary Roles in Cancer Prevention: Protease Inhibitor Makes the Cancer Preventive Peptide Lunasin Bioavailable” (PLoS ONE, 2010) come the findings set out here.

For series [1], the system named is DMBA-induced NIH3T3 cells. Briefly: Foci formation assay in DMBA-induced NIH3T3 cells. Conditions: 100 nM peptide; 1.5 µg/ml DMBA; 6 weeks; n = 6. The format is cell-based. The protocol: The foci formation assay was performed according to Reznikoff et al. NIH3T3 cells were obtained from American Type Culture Collection (ATCC) and cultured in RPMI 1640 medium supplemented with 10% fetal bovine serum (FBS) (Invitrogen, Carlsbad, CA, USA). Cells were plated at a density of 500 cells/well in 12-well plates, incubated overnight at 37°C and treated with lunasin or BBI for 4 hrs. Then, cells were treated with 1.5 µg/ml DMBA for 20 hrs. After washing with PBS, fresh medium was added. Peptides were added and medium was changed every week for 6 weeks. At the end of experiment, cells were washed with 0.9% NaCl, fixed with methanol, stained with Giemsa, and scored for transformed foci. The negative control was a set of cells receiving no DMBA, while the positive control consisted of cells induced by DMBA but without treatment.

The subject of series [2] is Pancreatin from porcine pancreas. Briefly: In vitro digestion of lunasin with pancreatin, with or without protease inhibitors. Conditions: inhibitor 18,000 ng, lunasin 600 ng, pancreatin 600 ng, 1 h at 37°C; also after heat denaturation of the inhibitor. The format is in vitro ADME. The protocol: Figure 2 Soy-derived BBI and KTI protect synthetic lunasin from in vitro digestion. The upper, lighter bands are Coomassie Blue protein stains and the lower, darker bands are Western blots. (M) Markers, (1) Lunasin (600 ng) + pancreatin (600 ng) incubated for 0 h at 37°C, (2) Lunasin (600 ng) + pancreatin (600 ng) incubated for 1 h at 37°C, (3) Lunasin (600 ng) + BBI (18,000 ng, unboiled) + pancreatin (600 ng) incubated for 1 h at 37°C, (4). Lunasin (600 ng) + KTI (18,000 ng, unboiled) + pancreatin (600 ng) incubated for 1 h at 37°C, (5) Lunasin (600 ng) + BBI (18,000 ng, boiled) + pancreatin (600 ng) incubated for 1 h at 37°C, (6) Lunasin (600 ng)+KTI (18,000 ng, boiled) + pancreatin (600 ng) incubated for 1 h at 37°C, (7) BBI (unboiled), (8) KTI (unboiled).
In vitro digestion of lunasin was carried out following the method published in the United States Pharmacopeia. Synthetic lunasin (American Peptide Company, Inc. Sunnyvale, CA, USA) (5 µg) was incubated with the protease inhibitors BBI or KTI (Sigma, St. Louis, MO, USA) for 30 min at 25°C. Pancreatin from porcine pancreas (Sigma) was added (enzyme∶protein ratio of 1∶10) and solution was incubated at 37°C for 1 h. Tris-tricine sample buffer was added at the end of the reaction and immediately stopped by placing the tubes in a boiling water bath for 5 min. The digests were analyzed by SDS-PAGE and Western-Blot following the protocol previously described.

Series [3] deals with MDA-MB-231 tumor xenografts. The series is described as follows: Breast cancer prevention in MDA-MB-231 xenograft mouse model. In kind it is in vivo, athymic NCr-nu/nu mice. On the procedure:
Human MDA-MB-231 breast cancer cells were obtained from ATCC and grown in Leibovitz's L-15 Medium supplemented with 10% FBS, 100 unit/ml penicillin, and 100 µg/ml streptomycin (Invitrogen), in a humidified atmosphere at 37°C.
Mice protocol was approved by ACUC (University of California, Berkeley, CA, USA). Thirty-two six weeks-old athymic NCr-nu/nu mice (National Cancer Institute, Frederick, MD, USA) were acclimatized for 1 week and randomly divided into four groups (n = 8): control group (receiving PBS), BBI-group (receiving BBI at 20 mg/kg body weight), and two lunasin-groups (receiving synthetic lunasin [Chengdu KaiJie Bio-Pharmaceutical Co., Chengdu, P.R. China] at 20 mg/kg body weight and 4 mg/kg body weight). After two months of i.p. treatment three times a week, mice were injected subcutaneously in the right flank with 1×10^7 MDA-MB-231 cells suspended in 0.1 ml of Matrigel Basement Membrane Matrix (Becton Dickinson, Bedford, MA, USA). Tumor growth was monitored by palpation, and the onset when tumors were detectable was noted. Tumor size was measured with calipers, and tumor volume was calculated assuming the shape as ellipsoid. Tumor incidence in percentage was calculated as the number of tumor-bearing mice divided by the total number of mice in each group, whereas tumor generation was calculated as the total number of tumors divided by total number of mice in each group. The volume of the tumor was determined using the following formula: tumor volume = length × width^2 ×0.523 [41].
At the end of the experiment, animals were sacrificed, and tumors were dissected and weighed. Individual tumors were split for fixation in the Shando Glyo-Fixx™ (Thermo Scientific, Pittsburgh, PA, USA) for histological examination. The paraffin-embedded sections were stained with hematoxylin and eosin (H&E).

For series [4], the system named is Ki-67 expression in MDA-MB-231 tumors. The series is described as follows: Immunohistochemical staining of xenograft tumor sections for Ki-67 labeling index. In kind it is in vivo, athymic NCr-nu/nu mice. Conditions: 20 mg/kg body weight i.p.; tumors collected 7 weeks after cells injection. On the procedure:
Sections were evaluated for tumor cell cytology, growth pattern, necrosis and apoptosis. The 5 µm sections were deparaffinized and rehydrated and antigens were retrieved using citrate buffer (pH 6.0) before endogenous peroxidase activity was blocked. Proliferation was shown using an antibody against Ki-67 (MIB-1; DakoCytomation, Glostrup, Denmark, dilution 1∶75). Antigen expression was expressed using streptavidin conjugated to horseradish peroxidase and visualized by diaminobenzidine chromogen reagent (DakoCytomation). All immunohistochemistry slides were examined by light microscopy (Axiophot 381, Zeiss, Germany). Ki-67 labeling index was calculated as percentage of positive cells over total number of cells counted in microscope at 400× magnification.

Another series concerns MDA-MB-231 tumors. The series is described as follows: In situ TUNEL assay for apoptosis in xenograft tumor sections. In kind it is in vivo, athymic NCr-nu/nu mice. Conditions: lunasin 20 and 4 mg/kg (P = 0.0088, 0.0141 vs control), BBI 20 mg/kg i.p. On the procedure:
In situ terminal deoxynucleotidyl transferase-mediated dUTP nick end labeling (TUNEL) assay was performed using ApopTag Detection Kit (Millipore, USA & Canada) and ran based on the manufacturer's protocol. Briefly, deparaffinized and rehydrated sections were pretreated with 20 µg/mL proteinase K for 15 min and incubated with terminal transferase and digoxigenin dUTP at 37°C for 1 h. After washing, sections were incubated with antidigoxigenin rhodamine (Millipore) and DAPI (Invitrogen), and slides were visualized by fluorescent microscopy (Axiophot 381). The apoptotic cells were calculated as percentage of positive cells over total number of cells counted in microscope at 400× magnification.

B1: BBI: polypeptide of 71 amino acids with the ability to inhibit the serine proteases trypsin and chymotrypsin (protein, UniProt P01055 40-110, looked up)
Bowman-Birk type proteinase …: DDESSKPCCDQCACTKSNPPQCRCSDMRLNSCHSACKSCICALSYPAQCFCVDITDFCYEPCKPSEDDKEN
Consider B1, for which the “reduction of foci formation” value in series [1] was 60%. Further, the “protection of lunasin from in vitro digestion with pancreatin” value in series [2] is recorded as “protect lunasin from digestion”. The “tumor incidence (mice showing tumors)” value in series [3] (20 mg/kg body weight i.p. three times a week, seven weeks post-cells injection, n = 8) is recorded as 88%. Further, the “tumor incidence lower compared with the control” value in series [3] (20 mg/kg body weight i.p., seven weeks post-cells injection) is “no effect”. In series [3] (20 mg/kg body weight i.p., versus vehicle-treated group), the tumor generation result is on record as “ineffective”. Also, the body weight result in series [3] (i.p. three times a week, BBI 20 mg/kg, lunasin 20 and 4 mg/kg body weight, compared among the four groups, n = 8) is given as “No significant differences”. In addition, the “reduction of Ki-67 expression compared with the control group” value in series [4] is listed as “no significant difference”. Also, the “TUNEL-positive apoptotic cells in tumors” value in the series with MDA-MB-231 tumors was “Few TUNEL-positive cells”.

B2: KTI: soy Kunitz Trypsin Inhibitor, a protease inhibitor contained in soybean (protein, UniProt P01070 25-205, looked up)
Trypsin inhibitor A: DFVLDNEGNPLENGGTYYILSDITAFGGIRAAPTGNERCPLTVVQSRNELDKGIGTIISSPYRIRFIAEGHPLSLKFDSFAVIMLCVGIPTEWSVVEDLPEGPAVKIGENKDAMDGWFRLERVSDDEFNNYKLVFCPQQAEDDKCGDIGISIDHDDGTRRLVVSKNKPLVVQFQKLDKESL
On to B2, for which, in series [2], the “protection of lunasin from in vitro digestion with pancreatin” value is reported as “protect lunasin from digestion”.
